According to article PMC11797056, “The ATPase activity of yeast chromosome axis protein Hop1 affects the frequency of meiotic crossovers” (Nucleic Acids Research, 2024):
Values belong to the molecule of their own block, whether it stands above or below them.

Assays:
[1] = molecular target: T1, Hop1 (Saccharomyces cerevisiae, UniProt P20050); assay: ITC (also ATP-agarose chromatography, UV crosslinking/filter binding, ATPase kinetics with Km […])
T1 construct: full-length His6-tagged WT Hop1
T1 sequence (P20050 1-605): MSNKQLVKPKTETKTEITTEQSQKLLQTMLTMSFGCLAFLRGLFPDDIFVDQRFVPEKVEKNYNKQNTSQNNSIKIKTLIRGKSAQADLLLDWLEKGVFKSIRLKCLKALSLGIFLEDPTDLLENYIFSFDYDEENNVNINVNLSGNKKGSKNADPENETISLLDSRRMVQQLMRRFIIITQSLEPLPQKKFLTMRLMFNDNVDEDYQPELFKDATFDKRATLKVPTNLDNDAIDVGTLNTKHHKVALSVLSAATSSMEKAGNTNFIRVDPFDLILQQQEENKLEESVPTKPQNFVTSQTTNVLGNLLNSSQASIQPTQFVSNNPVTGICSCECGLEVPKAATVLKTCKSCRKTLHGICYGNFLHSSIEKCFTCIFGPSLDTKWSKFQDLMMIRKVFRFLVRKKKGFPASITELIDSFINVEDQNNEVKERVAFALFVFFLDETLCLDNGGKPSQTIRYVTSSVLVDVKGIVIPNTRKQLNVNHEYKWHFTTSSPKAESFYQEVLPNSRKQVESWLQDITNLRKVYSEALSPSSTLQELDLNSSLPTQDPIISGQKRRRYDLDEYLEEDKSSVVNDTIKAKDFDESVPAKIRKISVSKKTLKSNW

[2] = molecular target: T2, Hop1 WT (Saccharomyces cerevisiae, UniProt P20050 1-605); assay: MST; 25 nM HJ; EMSA: 25 mM HEPES pH 7.5, 0.5 nM 32P-HJ, 37 C 15 min, 8% PAGE in TBE (25 mM Tris base pH 8.0, 25 mM boric acid, 0.5 mM EDTA) at 4 C; MST: 25 nM 6-FAM HJ, buffer not in material; conditions: protein: recombinant; tags: N-terminal His6 (pET28a); label: 5'-6FAM on HJ02; four-way junction of 4 strands
T2 sequence: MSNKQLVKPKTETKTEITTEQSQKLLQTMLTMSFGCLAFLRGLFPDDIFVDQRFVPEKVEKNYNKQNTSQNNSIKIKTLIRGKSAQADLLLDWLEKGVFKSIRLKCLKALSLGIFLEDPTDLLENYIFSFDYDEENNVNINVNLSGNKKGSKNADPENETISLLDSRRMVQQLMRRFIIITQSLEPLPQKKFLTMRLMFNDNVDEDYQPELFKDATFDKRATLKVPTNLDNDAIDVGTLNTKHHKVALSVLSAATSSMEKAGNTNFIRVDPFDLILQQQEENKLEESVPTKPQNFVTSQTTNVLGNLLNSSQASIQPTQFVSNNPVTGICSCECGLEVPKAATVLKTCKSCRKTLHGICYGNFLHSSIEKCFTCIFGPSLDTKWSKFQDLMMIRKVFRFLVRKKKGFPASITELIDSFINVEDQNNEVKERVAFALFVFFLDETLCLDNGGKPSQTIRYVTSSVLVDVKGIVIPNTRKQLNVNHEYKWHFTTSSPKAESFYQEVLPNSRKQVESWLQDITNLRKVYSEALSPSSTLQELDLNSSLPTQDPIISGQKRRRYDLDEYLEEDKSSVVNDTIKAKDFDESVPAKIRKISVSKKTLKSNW

[3] = molecular target: T3, Hop1 HORMA domain (S. cerevisiae, UniProt P20050 20-250, Red-tris-NTA label (in the MST only)); assay: MST; Red-tris-NTA labelled Hop1 HORMA domain fixed at 20 nM, Hop1-CTD titrated 0.00031 to 10 uM; incubated at 37°C for 15 min; Pico-RED, 5% excitation power; Hill model; apparent Kd; conditions: both partners purified
T3 construct: Hop1, S. cerevisiae, N-terminal HORMA domain; Amplified from pET28a-HOP1 and cloned NdeI/XhoI into pET14b; also called N-terminal HORMA domain; N-terminal region of Hop1; source: E. coli Rosetta (DE3), pET-14b, purified (Ni2+-NTA); not shown: His tag (inferred: Ni2+-NTA purification); Red-tris-NTA labelling; anti-His detection
T3 sequence (looked up): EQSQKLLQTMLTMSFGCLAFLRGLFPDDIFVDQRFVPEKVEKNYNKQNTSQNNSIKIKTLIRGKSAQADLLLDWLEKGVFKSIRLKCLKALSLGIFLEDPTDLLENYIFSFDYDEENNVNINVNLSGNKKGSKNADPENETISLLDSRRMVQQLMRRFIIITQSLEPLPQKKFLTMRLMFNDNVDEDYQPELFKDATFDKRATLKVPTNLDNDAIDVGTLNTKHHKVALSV

Molecule: Nc1ncnc2c1ncn2C1OC(COP(=O)(O)OP(=O)(O)OP(=O)(O)O)C(O)C1O (stereo not drawn) [ATP]
- Kd [1]: ~32.9 µM

B1: Holliday junction (HJ), 6-FAM (structured_DNA)
DNA 1: GACGCTGCCGAATTCTACCAGTGCCTTGCTAGGACATCTTTGCCCACCTGCCGGTTCACCC
DNA 2: TGGGTGAACCTGCAGGTGGGCAAAGATGTCCTAGCAATGTAATCGTCAAAGCTTTATGCCGTT
DNA 3: CAACGGCATAAAGCTTGACGATTACATTGCTAGGACATGCTGTCTAGAGGATCCGACTATCGA
DNA 4: ATCGATAGTCGGATCCTCTAGACAGCATGTCCTAGCAAGGCACTGGTAGAATTCGGCAGCGT
- Kd [2]: 0.206 µM

- Kd [3]: 1.9 ± 0.5 µM
B2: Hop1-CTD (domain or fragment)
chain: LSAATSSMEKAGNTNFIRVDPFDLILQQQEENKLEESVPTKPQNFVTSQTTNVLGNLLNSSQASIQPTQFVSNNPVTGICSCECGLEVPKAATVLKTCKSCRKTLHGICYGNFLHSSIEKCFTCIFGPSLDTKWSKFQDLMMIRKVFRFLVRKKKGFPASITELIDSFINVEDQNNEVKERVAFALFVFFLDETLCLDNGGKPSQTIRYVTSSVLVDVKGIVIPNTRKQLNVNHEYKWHFTTSSPKAESFYQEVLPNSRKQVESWLQDITNLRKVYSEALSPSSTLQELDLNSSLPTQDPIISGQKRRRYDLDEYLEEDKSSVVNDTIKAKDFDESVPAKIRKISVSKKTLKSNW
